Measured values published in paper PMC9876794 (2022).

B1: D148 (antibody, V domains shown)
VH: QLQLQESGPGLVKPSETLSLTCTVSGGSISSSSYYWGWIRQPPGKGLEWIGSIYYSGSTYYNPSLKSRVTISVDTSKNQFSLKLSSVTAADTAVYYCARQTIYYDSSGSLEVEPMDVWGQGTTVTVSS
VL: not shown
B2: C2731 (antibody, V domains shown)
VH: QVQLQQWGAGLLKPSETLSRTCAVYGGSFSGYYWSWIRQSPGKGLEWIGEINHRGSTNYNPSLKSRVTISVDTSKNQLSLELRSVTAADTAVYYCARSPGWTTVTRPFDYWGQGALVTVSS
VL: EIVLTQSPGTLSLSPGERATLSCRASQSVSSNYLAWYQQKPGQAPRLLVYGASNRATGIPDRFSGSGSGTDFTLTISRLEPEDFAVFYCQQYSSSPVTFGQGTRLEIK
B3: D108 (antibody, V domains shown)
VH: QVQLVQSGAEVKKPGASVKVSCKASGYTFTSSDINWVRQATGQGLEWVGWMNPNSGNTGYAQKFQGRVTMTRNTSISTAYMELSSLRSEDTAVYYCASGPYWSGYYYYFDNWGQGTLVTVSS
VL: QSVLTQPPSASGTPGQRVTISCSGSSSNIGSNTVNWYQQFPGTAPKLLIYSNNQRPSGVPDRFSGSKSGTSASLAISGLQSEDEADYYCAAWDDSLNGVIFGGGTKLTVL
B4: C2710 (antibody, V domains shown)
VH: EVQLVESGGGLVQPGGSLRLSCAASGFTFSSYWMSWVRQAPGKGLEWVANINQDGSEIHYVDSVKGRFTISRDNAKNSLYLQMNSLRAEDTAVYYCAREGGPYDFWSGSNWFDPWGQGTLVTVSS
VL: QSALTQPASVSGSPGQSITISCTGTSSDVGGYNFVSWYQQRPGKAPKLMIYEVHNRPSGVSNHFSGSKSGNTASLTISGLQAEDEADYYCSSYTSNSLYVFGTGTKVTVL
B5: D103 (antibody, V domains shown)
VH: QVQLVESGGGVVQPGRSLRLSCAASGFTFSSYGMHWVRQAPGKGLEWVAVISYDGSNKYYADSVKGRFTISRDNSKNTLYLQMNSLRAEDTAVYYCAKGGYYDSSAYYGPLDYWGQGTLVTVSS
VL: SYVLTQPPSVSVAPGKTARITCGGNNIGSKSVHWYQQKPGQAPVLVVYDDSDRPSGIPERFSGSNSGNTATLTISRVEAGDEADYYCQVWDSSSDHWVFGGGTKLTVL
B6: C2698 (antibody, V domains shown)
VH: EVQLVESGGGLAQPGRSLRLSCAASGFKFDDYAMHWVRQVPGQGLEWVSGIDWNSGIIGYADSVMGRFTISRDNAKKSLYLQMNSLRTEDTALYYCAKSGGFGEFKWFDPWGQGTLVTVSS
VL: EIVMTQSPATLSVSPGERATLSCRASQSVSSNLAWYQQKPGQAPRLLIYGASTRATGFPARFSGSGSGTEFTLTISRLQSEDFAVYYCQQYNKWPRTFGQGTKLEIK
B7: D173 (antibody, V domains shown)
VH: EVQLVQSGAEVKKPGESLRISCKGSGYSFTSYWISWVRQMPGKGLEWMGRIDPSDSYTNYSPSFQGHVTISADKSISTAYLQWSSLKASDTAMYYCASQGLVPAAIEIWDYWGQGTLVTVSS
VL: EIVLTQSPATLSLSPGERATLSCRASQSVSSYLAWYQQKPGQAPRLLIYDASNRATGIPARFSGSGSGTDFTLTISSLEPEDFAVYYCQQHSNWPLTFGGGTKVEIK
B8: C2738 (antibody, V domains shown)
VH: QVQLQESGPGLVKPSETLSLTCTVSGGSISSYYWSWIRQPAGKGLEWIGRIYTSGSTNYNPSLKSRVTMSVDTSKNQFSLKLSSVTAADTAVYYCARDLWGGSRPFNWFDPWGQGTLVTVSS
VL: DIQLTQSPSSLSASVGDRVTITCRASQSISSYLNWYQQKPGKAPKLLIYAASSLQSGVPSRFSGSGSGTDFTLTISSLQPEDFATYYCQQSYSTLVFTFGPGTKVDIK
B9: C2715 (antibody)
chain 1: not shown
chain 2: DIQLTQSPSSVSASVGDRVTITCRASQGISSWLAWYQQKPGKAPKLLIYAASSLQSGVPSRFSGSGSGTDFTLTISSLQPEDFATYYCQQANSFPRTFGQGTKVEIK

Legend:
[1] = target: T1, SARS-CoV-2 spike RBD (WT) (Severe acute respiratory syndrome …, UniProt P0DTC2); experiment: ELISA; set-up: unit not given here
[2] = target: T1, SARS-CoV-2 spike RBD (WT); experiment: BLI

Row | Binder | binding score [1] | Kd [2] [nM]
1 | B1 | 29 | 6.46
2 | B2 | 4400 | 143
3 | B3 | 6120 | 6840
4 | B4 | 9.12 | 11.9
5 | B5 | > 10000 | 2700
6 | B6 | 79.2 | 152
7 | B7 | 181 | 60.3
8 | B8 | 21.1 | 10.2
9 | B9 | 189 | 63.4
